Here are results for two molecules from patent US20250019439A1 (Adimab, published 2025).

In experiment [1] the target is T1, CTL-62228.
T1 construct: also called glofitamab
Put plainly: SPR Carterra, CHO anti-ID. The method, then:
(§1) Kinetic analysis was conducted at 25° C. in an HBSTE running buffer system (Carterra Cat #3630) using a Carterra LSA (Carterra USA, Salt Lake City, UT). The sample compartment was maintained at 20° C. for the duration of each experiment.
(§2) For antibody capture experiments, a goat anti-human Fc antibody (Jackson ImmunoResearch) was covalently coupled to an HC30M sensor chip surface via standard amine coupling (1:1 EDC:NHS) and then blocked with ethanolamine (1.0 M, pH 8.5). Covalent coupling steps were performed in 25 mM MES buffer (Carterra, Cat #3625) plus 0.05% Tween20. The anti-CD3 antibodies (100 nM in running buffer) were flowed over discrete regions of interest on the chip surface for 5 minutes. […] Dissociation of the anti-idiotype antibodies was monitored for 300s. Several blank buffer samples were injected over the entire chip surface at the start of each non-regenerative kinetic cycle. The preceding blank buffer injection was used for blank surface subtraction. At the end of each non-regenerative kinetic cycle, all surfaces were regenerated via two 30s injections of 10 mM glycine, pH 1.7.
(§3) In Tables 10A-10C, anti-CD3 antibodies are listed by ADI number or CTL number in the first column. […] CTL-62223 is mosunetuzumab, CTL-62227 is odronextamab, CTL-62228 is glofitamab, and CTL-62240 is ONO-4685. […] “W.B.” means weak binding under the conditions of this assay and thus a KD was unable to be assigned. “N.B.” means no binding under the conditions of this assay.

The target in experiment [2] is T2, CTL-62227.
T2 construct: also called odronextamab
T2 sequence (VH, as listed by the source, chain 1 of 2): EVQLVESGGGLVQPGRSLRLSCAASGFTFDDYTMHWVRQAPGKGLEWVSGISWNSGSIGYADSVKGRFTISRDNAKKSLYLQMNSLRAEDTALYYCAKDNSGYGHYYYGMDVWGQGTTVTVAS
T2 sequence (VL, as listed by the source, chain 2 of 2): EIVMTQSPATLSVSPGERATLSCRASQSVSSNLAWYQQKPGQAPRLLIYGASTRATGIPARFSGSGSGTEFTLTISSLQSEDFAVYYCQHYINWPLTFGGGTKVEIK
Put plainly: SPR Carterra, CHO anti-ID. On the procedure:
as §1, §2, §3

Experiment [3] deals with T3, ADI-70327.
T3 construct: anti-CD3 antibody made in CHO cells, captured by anti-human Fc
T3 sequence (VH, as listed by the source limits assumed, chain 1 of 2): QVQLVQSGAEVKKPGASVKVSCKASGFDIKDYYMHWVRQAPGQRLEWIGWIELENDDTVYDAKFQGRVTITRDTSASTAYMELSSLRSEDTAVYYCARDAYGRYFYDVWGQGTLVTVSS
T3 sequence (VL, as listed by the source limits assumed, chain 2 of 2): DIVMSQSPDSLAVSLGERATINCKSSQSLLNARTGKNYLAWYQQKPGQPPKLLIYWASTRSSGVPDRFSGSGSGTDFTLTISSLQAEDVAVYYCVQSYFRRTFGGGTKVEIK
Put plainly: SPR Carterra avidity, yeast anti-ID. The procedure, abridged: (§4)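 At 25° C, anti-idiotype antibodies were analysed binding to anti-CD3 antibodies held on an anti-human Fc surface. Data were fitted to a 1:1 model.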

Another experiment addresses T4, ADI-76361.
T4 construct: anti-CD3 antibody made in CHO cells, captured by anti-human Fc
Put plainly: SPR Carterra avidity, yeast anti-ID. The procedure, abridged: as §4

Another experiment concerns the target T5, ADI-76362.
T5 construct: anti-CD3 antibody made in CHO cells, captured by anti-human Fc
Put plainly: SPR Carterra avidity, yeast anti-ID. Put shortly:
as §4

The target in the next experiment is T6, ADI-26921 IgG.
T6 construct: anti-CD3 IgG
T6 sequence (VH, as listed by the source limits assumed, chain 1 of 2): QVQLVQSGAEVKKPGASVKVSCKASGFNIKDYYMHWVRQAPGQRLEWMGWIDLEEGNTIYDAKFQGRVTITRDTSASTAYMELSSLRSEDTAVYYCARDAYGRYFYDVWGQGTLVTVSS
T6 sequence (VL, as listed by the source limits assumed, chain 2 of 2): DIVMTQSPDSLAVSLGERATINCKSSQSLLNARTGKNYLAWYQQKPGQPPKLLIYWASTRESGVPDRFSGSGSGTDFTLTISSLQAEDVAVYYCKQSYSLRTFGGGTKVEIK
Kind of experiment: SPR Carterra avidity, yeast anti-ID. Put shortly:
as §4

A further experiment addresses T7, ADI-67450.
T7 construct: anti-CD3 antibody made in CHO cells, captured by anti-human Fc
Kind of experiment: SPR Carterra avidity, yeast anti-ID. The procedure, abridged:
as §4

In another experiment the target is T8, ADI-70330.
T8 construct: anti-CD3 antibody made in CHO cells, captured by anti-human Fc
T8 sequence (VH, as listed by the source limits assumed, chain 1 of 2): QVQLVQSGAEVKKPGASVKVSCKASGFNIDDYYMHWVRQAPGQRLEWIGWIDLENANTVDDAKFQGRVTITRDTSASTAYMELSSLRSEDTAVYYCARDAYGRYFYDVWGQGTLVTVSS
Put plainly: SPR Carterra avidity, yeast anti-ID. The procedure, abridged:
as §4

For the next experiment, the target named is T9, ADI-26912.
T9 construct: anti-CD3 antibody made in CHO cells, captured by anti-human Fc
T9 sequence (VH, as listed by the source, chain 1 of 2): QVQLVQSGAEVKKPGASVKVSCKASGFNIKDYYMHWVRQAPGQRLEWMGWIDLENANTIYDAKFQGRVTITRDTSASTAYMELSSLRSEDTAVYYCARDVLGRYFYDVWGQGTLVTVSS
T9 sequence (VL, as listed by the source, chain 2 of 2): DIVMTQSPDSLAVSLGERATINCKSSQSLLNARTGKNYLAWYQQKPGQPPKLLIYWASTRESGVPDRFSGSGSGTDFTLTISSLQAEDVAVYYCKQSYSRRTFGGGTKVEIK
Put plainly: SPR Carterra avidity, yeast anti-ID. Put shortly: as §4

Experiment [4] addresses T10, CTL-62223.
T10 construct: also called mosunetuzumab
Put plainly: SPR Carterra avidity, yeast anti-ID. Put shortly: as §4

Another experiment addresses T11, ADI-26915.
T11 construct: anti-CD3 antibody made in CHO cells, captured by anti-human Fc
Kind of experiment: SPR Carterra avidity, yeast anti-ID. Put shortly: as §4

Another experiment concerns the target T12, ADI-74966.
T12 construct: pH-dependent anti-CD3 antibody made in CHO cells
Put plainly: SPR Carterra avidity, yeast anti-ID. Put shortly:
as §4

A further experiment has as its target T13, ADI-26954 IgG.
T13 construct: anti-CD3 IgG
Put plainly: BLI; tip ADI-34134 IgG, solution anti-CD3 IgG. The method, then: (§5) ForteBio affinity measurements were performed generally as previously described (Estep et al., MAbs. 2013 5(2):270-8). Briefly, ForteBio affinity measurements were performed by loading antibody IgG or Fabs on-line onto AHC sensors. Sensors were equilibrated off-line in assay buffer for 30 minutes and then monitored on-line for 60 seconds for baseline establishment. For avid binding measurement, sensors with loaded antibodies were exposed to IgG or Fab solutions for 3 minutes, afterwards they were transferred to assay buffer for 3 minutes for off-rate measurement. Kinetics data were fit using a 1:1 binding model in the data analysis software provided by ForteBio to obtain equilibrium dissociation constant (KD=koff/kₒₙ) values. In each column, tip-immobilized antibodies are listed first and solution antibodies second.
In each column, tip-immobilized antibodies are listed first and solution antibodies second.

In a further experiment the target is T14, ADI-26906 IgG.
T14 construct: anti-CD3 IgG
T14 sequence (VH, as listed by the source limits assumed, chain 1 of 2): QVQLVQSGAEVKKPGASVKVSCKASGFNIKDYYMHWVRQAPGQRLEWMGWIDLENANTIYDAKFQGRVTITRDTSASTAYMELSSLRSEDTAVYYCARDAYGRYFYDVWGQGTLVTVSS
Kind of experiment: SPR Carterra avidity, yeast anti-ID. The procedure, abridged:
as §4

A further experiment has as its target T15, ADI-67447.
T15 construct: anti-CD3 antibody made in CHO cells, captured by anti-human Fc
Put plainly: SPR Carterra avidity, yeast anti-ID. The procedure, abridged: as §4

A further experiment deals with T16, ADI-76359.
T16 construct: anti-CD3 antibody made in CHO cells, captured by anti-human Fc
T16 sequence (VH, as listed by the source, chain 1 of 2): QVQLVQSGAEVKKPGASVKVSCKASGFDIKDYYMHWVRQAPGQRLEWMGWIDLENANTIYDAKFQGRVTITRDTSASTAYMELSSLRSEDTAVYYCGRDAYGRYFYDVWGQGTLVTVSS
Kind of experiment: SPR Carterra avidity, yeast anti-ID. The procedure, abridged:
as §4

Another experiment concerns the target T17, ADI-26916 IgG.
T17 construct: anti-CD3 IgG
Kind of experiment: SPR Carterra avidity, yeast anti-ID. The procedure, abridged:
as §4

In another experiment the target is T18, ADI-74968.
T18 construct: pH-dependent anti-CD3 antibody made in CHO cells
T18 sequence (VH, as listed by the source, chain 1 of 2): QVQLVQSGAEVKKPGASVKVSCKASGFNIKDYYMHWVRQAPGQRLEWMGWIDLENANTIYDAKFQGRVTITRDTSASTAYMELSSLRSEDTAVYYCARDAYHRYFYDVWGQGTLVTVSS
T18 sequence (VL, as listed by the source, chain 2 of 2): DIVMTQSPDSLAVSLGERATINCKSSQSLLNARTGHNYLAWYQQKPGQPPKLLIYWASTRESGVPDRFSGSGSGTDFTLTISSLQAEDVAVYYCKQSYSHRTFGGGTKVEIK
Put plainly: SPR Carterra avidity, yeast anti-ID. Put shortly: as §4

A further experiment addresses T19, ADI-26920 Fab.
T19 construct: anti-CD3 Fab by papain digestion of the IgG
Put plainly: BLI; tip ADI-34145 IgG, solution anti-CD3 Fab. The method, then: as §5
(§6) CTL-19613 is an IgG1 antibody prepared with anti-CD3 variable domains corresponding with those of clone 12C described in United States Publication Number US 2010/0183615 (e.g., see paragraphs 469-479 and FIG. 25 thereof), which also make up the CD3 binding domain of the bispecific antibody pasotuxizumab. […] In each column, tip-immobilized antibodies are listed first and solution antibodies second.
On the technique in general: In BLI a coated tip is dipped into the sample, and binding shifts an interference pattern.

The next experiment has as its target T20, CTL-19613 Fab.
T20 construct: anti-CD3 Fab by papain digestion of the IgG1
Kind of experiment: BLI; tip ADI-34145 IgG, solution anti-CD3 Fab. On the procedure: as §5, §6

Another experiment has as its target T21, CTL-19672 Fab.
T21 construct: anti-CD3 Fab by papain digestion of the IgG1
Put plainly: BLI; tip ADI-34145 IgG, solution anti-CD3 Fab. The method, then: as §5, §6

A further experiment deals with T22, ADI-22523 Fab.
T22 construct: anti-CD3 Fab by papain digestion of the IgG
T22 sequence (VH, as listed by the source limits assumed, chain 1 of 2): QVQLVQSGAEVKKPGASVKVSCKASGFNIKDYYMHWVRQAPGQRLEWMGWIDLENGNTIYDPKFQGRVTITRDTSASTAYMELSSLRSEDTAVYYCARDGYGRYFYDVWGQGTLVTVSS
T22 sequence (VL, as listed by the source limits assumed, chain 2 of 2): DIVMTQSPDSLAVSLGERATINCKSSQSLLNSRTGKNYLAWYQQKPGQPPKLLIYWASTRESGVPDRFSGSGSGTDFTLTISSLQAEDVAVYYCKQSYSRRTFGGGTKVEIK
Kind of experiment: BLI; tip ADI-34145 IgG, solution anti-CD3 Fab. On the procedure:
as §5, §6

In experiment [5] the target is T3, ADI-70327. Put plainly: SPR Carterra, yeast anti-ID. Put shortly: as §4
Another experiment deals with T23, ADI-67445.
T23 construct: anti-CD3 antibody made in CHO cells, captured by anti-human Fc
T23 sequence (VH, as listed by the source limits assumed, chain 1 of 2): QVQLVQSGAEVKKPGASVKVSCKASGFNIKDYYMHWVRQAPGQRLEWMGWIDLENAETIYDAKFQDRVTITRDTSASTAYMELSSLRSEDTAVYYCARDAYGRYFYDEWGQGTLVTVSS
Put plainly: SPR Carterra, yeast anti-ID. Put shortly:
as §4

For experiment [6], the target named is T1, CTL-62228. Put plainly: SPR Carterra, yeast anti-ID. Put shortly: as §4
The next experiment has as its target T24, CTL-62240.
T24 construct: also called ONO-4685
Kind of experiment: SPR Carterra, yeast anti-ID. Put shortly: as §4

Experiment [7] deals with T2, CTL-62227. Kind of experiment: SPR Carterra, yeast anti-ID. The procedure, abridged: as §4
The target of experiment [8] is T10, CTL-62223. Put plainly: SPR Carterra, yeast anti-ID. The procedure, abridged: as §4
T10 sequence (VH, as listed by the source, chain 1 of 2): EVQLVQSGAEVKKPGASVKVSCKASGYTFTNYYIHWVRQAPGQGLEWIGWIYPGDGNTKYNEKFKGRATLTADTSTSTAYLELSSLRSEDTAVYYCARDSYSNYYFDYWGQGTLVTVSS
T10 sequence (VL, as listed by the source, chain 2 of 2): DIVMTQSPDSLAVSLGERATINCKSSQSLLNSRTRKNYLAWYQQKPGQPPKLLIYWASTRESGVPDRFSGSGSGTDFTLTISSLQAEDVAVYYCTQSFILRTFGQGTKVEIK

T4 sequence (VH, as listed by the source, chain 1 of 2): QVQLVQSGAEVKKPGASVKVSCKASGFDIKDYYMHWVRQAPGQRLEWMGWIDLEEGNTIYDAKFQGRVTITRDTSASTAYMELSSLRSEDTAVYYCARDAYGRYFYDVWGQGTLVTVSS
T24 sequence (VH, as listed by the source, chain 1 of 2): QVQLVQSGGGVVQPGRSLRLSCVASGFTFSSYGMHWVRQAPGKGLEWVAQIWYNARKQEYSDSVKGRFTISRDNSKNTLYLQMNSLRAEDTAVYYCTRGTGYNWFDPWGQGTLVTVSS
T24 sequence (VL, as listed by the source, chain 2 of 2): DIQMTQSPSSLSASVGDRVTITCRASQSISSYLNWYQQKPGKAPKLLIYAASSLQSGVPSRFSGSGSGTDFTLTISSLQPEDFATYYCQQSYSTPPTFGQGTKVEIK
T15 sequence (VH, as listed by the source limits assumed, chain 1 of 2): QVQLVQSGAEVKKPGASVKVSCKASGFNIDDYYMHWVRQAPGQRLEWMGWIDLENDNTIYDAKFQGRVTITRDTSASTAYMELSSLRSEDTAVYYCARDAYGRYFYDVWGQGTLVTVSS
T17 sequence (VH, as listed by the source, chain 1 of 2): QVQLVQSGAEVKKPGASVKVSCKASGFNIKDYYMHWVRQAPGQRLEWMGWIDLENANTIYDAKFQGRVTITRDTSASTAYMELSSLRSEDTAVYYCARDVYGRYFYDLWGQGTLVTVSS
T13 sequence (VH, as listed by the source limits assumed, chain 1 of 2): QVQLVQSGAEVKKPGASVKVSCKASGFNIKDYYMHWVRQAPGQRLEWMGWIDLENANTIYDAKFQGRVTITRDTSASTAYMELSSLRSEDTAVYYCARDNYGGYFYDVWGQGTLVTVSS
T13 sequence (VL, as listed by the source limits assumed, chain 2 of 2): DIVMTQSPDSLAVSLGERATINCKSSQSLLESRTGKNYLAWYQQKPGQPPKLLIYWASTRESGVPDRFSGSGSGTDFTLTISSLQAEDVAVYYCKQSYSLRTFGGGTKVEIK
T21 sequence (VH, as listed by the source limits assumed, chain 1 of 2): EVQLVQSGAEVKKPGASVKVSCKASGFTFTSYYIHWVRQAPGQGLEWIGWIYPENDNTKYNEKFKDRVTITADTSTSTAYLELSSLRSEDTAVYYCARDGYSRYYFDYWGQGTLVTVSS
T21 sequence (VL, as listed by the source limits assumed, chain 2 of 2): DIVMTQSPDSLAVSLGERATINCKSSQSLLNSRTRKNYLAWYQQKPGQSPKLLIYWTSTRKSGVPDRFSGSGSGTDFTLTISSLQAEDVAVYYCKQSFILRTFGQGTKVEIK
T7 sequence (VH, as listed by the source limits assumed, chain 1 of 2): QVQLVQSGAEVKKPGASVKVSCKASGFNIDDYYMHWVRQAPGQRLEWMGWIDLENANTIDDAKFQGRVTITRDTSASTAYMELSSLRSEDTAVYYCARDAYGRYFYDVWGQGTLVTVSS
T19 sequence (VH, as listed by the source limits assumed, chain 1 of 2): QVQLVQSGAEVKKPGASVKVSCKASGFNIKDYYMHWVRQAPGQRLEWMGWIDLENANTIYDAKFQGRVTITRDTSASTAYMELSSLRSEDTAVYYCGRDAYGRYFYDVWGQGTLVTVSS
T12 sequence (VH, as listed by the source, chain 1 of 2): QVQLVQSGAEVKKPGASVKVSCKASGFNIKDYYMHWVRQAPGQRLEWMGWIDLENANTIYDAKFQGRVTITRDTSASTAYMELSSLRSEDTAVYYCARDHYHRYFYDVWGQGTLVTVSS
T5 sequence (VH, as listed by the source, chain 1 of 2): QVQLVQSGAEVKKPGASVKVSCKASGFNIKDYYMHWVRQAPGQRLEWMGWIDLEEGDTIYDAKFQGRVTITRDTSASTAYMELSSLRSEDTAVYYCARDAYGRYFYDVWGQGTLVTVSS
T11 sequence (VH, as listed by the source, chain 1 of 2): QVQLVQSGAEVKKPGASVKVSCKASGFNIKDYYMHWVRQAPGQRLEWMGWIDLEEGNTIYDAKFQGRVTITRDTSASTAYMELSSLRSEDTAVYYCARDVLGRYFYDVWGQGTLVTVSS

B1: ADI-34134 IgG (antibody, V domains shown)
VH: QVQLVQSGAEVKKPGSSVKVSCKASGGTFSSYAISWVRQAPGQGLEWMGGIIPIFGTANYAQKFQGRVTITADESTSTAYMELSSLRSEDTAVYYCARGAPNYYGSGGYDDGWFDPWGQGTLVTVSS
VL: EIVLTQSPGTLSLSPGERATLSCRASQSVSSDYLAWYQQKPGQAPRLLIYGASSRATGIPDRFSGSGSGTDFTLTISRLEPEDFAVYYCQQFGRVPTFGGGTKVEIK
For B1, the binding result with CTL-62228 [1] and in the experiment with CTL-62227 [2] was “no binding (tested: up to 200 nM)” throughout. Further, the Kd turned out to be 14 nM in the experiment with ADI-70327 [3]; 7.1 nM in the experiment with ADI-76361; 6.3 nM with ADI-76362; 3.6 nM with ADI-26921 IgG; 12 nM in the experiment with ADI-67450; 13 nM with ADI-70330. Further, the Kd was 34 nM in the experiment with ADI-26912; 18 nM in the experiment with CTL-62223 [4]; 19 nM with ADI-26915; 52 nM with ADI-74966; 1.04 nM with ADI-26954 IgG.

B2: ADI-34145 IgG (antibody, V domains shown)
VH: EVQLLESGGGLVQPGGSLRLSCAASGFTFSSYAMSWVRQAPGKGLEWVSTISGSGGSTYYADSVKGRFTISRDNSKNTLYLQMNSLRAEDTAVYYCARLGGRRGSGSSYYYYYGMDVWGQGTTVTVSS
VL: not shown
notes: anti-ID IgG
For the molecule B2, the Kd was determined as 14 nM with ADI-26906 IgG; 27 nM in the experiment with ADI-67447; 14 nM with ADI-76359; 20 nM with ADI-26916 IgG; 67 nM with ADI-74968; 3.71 nM with ADI-26920 Fab. The molecule further gave a Kd in the experiment with ADI-22523 Fab of 3.16 nM. Besides, the binding result in the experiment with CTL-19613 Fab is listed as “no binding”; in the experiment with CTL-19672 Fab, “no binding”; in the experiment with ADI-70327 [5] it was “no binding (tested: up to 200 nM)”; with ADI-67445, “no binding (tested: up to 200 nM)”; in the experiment with CTL-62228 [6] it was “no binding (tested: up to 200 nM)”; with CTL-62240 it was “no binding (tested: up to 200 nM)”. Also, the binding result with CTL-62227 [7] and with CTL-62223 [8] was “no binding (tested: up to 200 nM)” each time.
